For assay [1], the target named is T1, human ErbB3 extracellular subdomain 3 (ECD^III, residues 329-532) (Homo sapiens, UniProt P21860).
T1 construct: ErbB3 (HER3) receptor, human, extracellular subdomain 3, residues 329-532; secreted with the Igκ leader of the pEE vector; Glycosylated, MW ~25 kDa; also called ErbB3 ECD^III; source: CHO-T-HC cells, transiently transfected, secreted, purified (CaptureSelect C-tag resin)
The assay can be described thus: SPR; ErbB3 ECD^III immobilised on a CM5 chip by amine coupling; Biacore T200, 37 °C; HBS with 50 µg/mL BSA. Conditions: both partners purified.

Assay [2] has as its target T2, human ErbB3 extracellular domain (ECD, residues 21-643) (Homo sapiens, UniProt P21860).
T2 construct: ErbB3 (HER3) receptor, human, extracellular domain, residues 21-643; secreted with the Igκ leader of the pEE vector; Glycosylated, MW 75 kDa; also called ErbB3 ECD; HER3 extracellular domain; source: CHO-T-HC cells, transiently transfected, secreted, purified (IMAC on HisTrap, SEC on Superdex 200 pg)
Kind of assay: SPR; ErbB3 ECD immobilised on a CM5 chip by amine coupling; Biacore T200, 37 °C; antibodies in HBS (10 mM HEPES pH 7.4, 150 mM NaCl) with 50 µg/mL BSA; sensograms fitted globally by a 1:1 model at three concentrations near KD; geometric means of two experiments. To be noted: both partners purified.

Assay [3] has as its target T3, extracellular domain of ErbB2 (Homo sapiens (assumed), UniProt P04626).
T3 construct: ErbB2 (HER2) receptor, extracellular domain; also called ErbB2 ECD
The assay can be described thus: SPR; test of antibody specificity against the extracellular domain of ErbB2 (Figure S5); Biacore T200, CM5 chip, 37 °C. To be noted: both partners purified.

Assay [4] addresses T2, human ErbB3 extracellular domain (ECD, …). The assay can be described thus: SPR; ErbB3 ECD immobilised on a CM5 chip by amine coupling; Biacore T200, 37 °C; HBS with 50 µg/mL BSA; equilibrium response read 5 s before injection end, fitted by the Hill equation; geometric means of two experiments. Conditions: both partners purified.
Assay [5] deals with T4, ErbB3 receptor on cancer cells (Homo sapiens, UniProt P21860).
T4 construct: ErbB3 (HER3) receptor, endogenous on human cancer cell lines; also called HER3; source: endogenous, on live MCF-7, SK-BR-3, BT-474 and Hep G2 cells
T4 sequence (P21860 20-1342): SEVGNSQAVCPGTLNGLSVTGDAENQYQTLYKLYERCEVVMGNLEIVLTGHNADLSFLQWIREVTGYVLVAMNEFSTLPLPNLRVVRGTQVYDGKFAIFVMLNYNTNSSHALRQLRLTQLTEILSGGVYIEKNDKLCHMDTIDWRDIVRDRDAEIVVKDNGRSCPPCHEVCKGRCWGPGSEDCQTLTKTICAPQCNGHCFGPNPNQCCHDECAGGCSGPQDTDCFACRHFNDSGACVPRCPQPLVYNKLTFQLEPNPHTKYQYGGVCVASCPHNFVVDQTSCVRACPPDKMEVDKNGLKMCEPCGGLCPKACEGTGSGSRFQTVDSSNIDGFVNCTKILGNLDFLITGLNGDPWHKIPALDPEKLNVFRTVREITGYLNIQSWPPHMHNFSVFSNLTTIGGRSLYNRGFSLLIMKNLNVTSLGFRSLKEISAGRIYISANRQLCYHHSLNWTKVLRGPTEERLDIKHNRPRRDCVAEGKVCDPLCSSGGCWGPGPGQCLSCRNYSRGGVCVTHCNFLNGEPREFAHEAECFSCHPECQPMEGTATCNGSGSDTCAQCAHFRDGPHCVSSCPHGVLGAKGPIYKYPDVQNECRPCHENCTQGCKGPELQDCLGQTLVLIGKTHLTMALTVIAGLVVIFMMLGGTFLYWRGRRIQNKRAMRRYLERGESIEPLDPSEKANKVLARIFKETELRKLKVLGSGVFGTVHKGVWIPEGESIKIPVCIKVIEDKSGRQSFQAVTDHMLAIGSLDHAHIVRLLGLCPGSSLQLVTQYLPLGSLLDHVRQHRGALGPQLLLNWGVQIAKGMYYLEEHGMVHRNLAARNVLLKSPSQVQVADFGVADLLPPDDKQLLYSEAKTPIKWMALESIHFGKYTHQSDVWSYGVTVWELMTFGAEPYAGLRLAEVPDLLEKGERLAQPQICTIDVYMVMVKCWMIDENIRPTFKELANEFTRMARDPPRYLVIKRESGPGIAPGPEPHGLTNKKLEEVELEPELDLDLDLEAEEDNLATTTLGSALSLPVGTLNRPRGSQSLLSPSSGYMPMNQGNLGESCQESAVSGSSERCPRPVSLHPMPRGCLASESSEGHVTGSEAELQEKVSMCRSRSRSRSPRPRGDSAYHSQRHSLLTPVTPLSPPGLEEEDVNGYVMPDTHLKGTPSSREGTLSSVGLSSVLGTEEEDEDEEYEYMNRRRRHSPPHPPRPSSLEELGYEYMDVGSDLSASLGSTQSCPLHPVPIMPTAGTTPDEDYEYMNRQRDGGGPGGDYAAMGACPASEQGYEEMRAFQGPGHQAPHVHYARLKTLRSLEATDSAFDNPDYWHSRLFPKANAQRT
Kind of assay: immunostaining of cells or tissue; live cells stained 30 min in PBS with 5 µg/mL directly labelled antibody and Hoechst 33342; confocal microscopy; MCF-7, SK-BR-3, BT-474, Hep G2; K562 as negative control. To be noted: one partner purified.

T1 sequence (P21860 329-532): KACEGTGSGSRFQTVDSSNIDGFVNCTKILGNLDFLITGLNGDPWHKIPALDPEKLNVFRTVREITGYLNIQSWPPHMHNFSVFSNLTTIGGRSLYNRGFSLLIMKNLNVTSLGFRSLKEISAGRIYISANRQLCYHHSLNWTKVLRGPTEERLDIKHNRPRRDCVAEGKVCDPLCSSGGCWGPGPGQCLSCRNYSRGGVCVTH
T2 sequence (P21860 21-643 R488S): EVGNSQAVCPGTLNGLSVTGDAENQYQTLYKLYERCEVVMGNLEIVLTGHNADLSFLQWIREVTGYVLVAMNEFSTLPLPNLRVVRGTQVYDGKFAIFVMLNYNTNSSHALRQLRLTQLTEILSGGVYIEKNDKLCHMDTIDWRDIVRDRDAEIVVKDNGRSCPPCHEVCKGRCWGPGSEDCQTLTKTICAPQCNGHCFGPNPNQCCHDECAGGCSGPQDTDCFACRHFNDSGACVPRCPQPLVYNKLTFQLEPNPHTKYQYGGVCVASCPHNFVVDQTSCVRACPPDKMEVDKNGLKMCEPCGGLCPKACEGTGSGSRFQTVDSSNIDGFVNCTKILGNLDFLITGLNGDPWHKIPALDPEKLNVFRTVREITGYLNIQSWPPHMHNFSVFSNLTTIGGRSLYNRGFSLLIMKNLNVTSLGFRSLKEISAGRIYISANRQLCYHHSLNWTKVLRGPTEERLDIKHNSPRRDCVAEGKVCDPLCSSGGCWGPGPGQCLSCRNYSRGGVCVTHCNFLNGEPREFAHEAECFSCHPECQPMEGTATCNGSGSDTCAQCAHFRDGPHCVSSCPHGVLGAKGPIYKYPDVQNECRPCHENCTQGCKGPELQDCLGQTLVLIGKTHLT

B1: BCD090-M2 (VHH)
VHH: QVQLVQSGGGLVQAGGSLRLSCAFSGRTFSMYTMGWFRQAPGKEREFVAANRGRGLSPDIADSVNGRFTISRDNAKNTLYLQMDSLKPEDTAVYYCAADLQYGSSWPQRSSAEYDYWGQGTTVTVSS
notes: llama VHH from a phage display library; the product left after TEV cleavage; no PDB id is printed; also called anti-ErbB3 single-domain antibody BCD090-M2; source: E. coli SHuffle T7 express, cytoplasmic, purified (IMAC, TEV cleavage, negative IMAC, ion exchange); not shown: His tag, N-terminal, cleaved; SUMO, N-terminal, cleaved
In the case of B1, in assay [1], the binding result is “no binding”. In assay [2], the Kd amounted to 16.5 ± 2 nM, the koff stood at 0.0036 s⁻¹ and the kon came to 220000 M⁻¹ s⁻¹. In assay [3], the binding result was “no binding”. This molecule also had a Kd in assay [4] of 15 ± 1 nM.

B2: BCD090-M456 (VHH)
VHH: QVQLVQSGGGLVQSGGSLKLSCVASGGPFSTYLMGWFRQAPGKEREFVTAISRSGLNTYYADSVKGRFTISRDNAKNTVYLQMHSLKPEDTAVYHCAARRGGTNSGSYYFDRPAVSDEYDLWGQGTLVTVSS
notes: llama VHH from a phage display library; the product left after TEV cleavage; Lacks the Cys22-Cys92 disulfide bond (cysteines reduced); CDR H3 of 23 residues; also called anti-ErbB3 single-domain antibody BCD090-M456; source: E. coli SHuffle T7 express or BL21(DE3), cytoplasmic, purified (IMAC, TEV cleavage, negative IMAC, ion exchange); not shown: His tag, N-terminal, cleaved; SUMO, N-terminal, …
Turning to B2, the binding result in assay [1] is reported as “no binding”. Also, in assay [2], the Kd came to 3100 ± 200 nM, the koff turned out to be 0.0022 s⁻¹ and the kon was determined as 720 M⁻¹ s⁻¹. For the same molecule, in assay [4], the Kd was 8600 ± 800 nM.

B3: BCD090-P1 (VHH)
VHH: EVQLVQSGGGLVQPGGSLRLSCAASGRTSSKYAMGWFRQAPGKGTEFVATISWSDGSTYYADSVEGRFTISRDNAKNTVYLQMNSLKPEDTAVYYCAAAVDVLAGTFEYEYDYWGQGTLVTVSS
notes: llama VHH from a phage display library; the product left after TEV cleavage; Monomer by SEC; One disulfide bond Cys22-Cys92; also called anti-ErbB3 single-domain antibody BCD090-P1; source: E. coli SHuffle T7 express or BL21(DE3), cytoplasmic, purified (IMAC, TEV cleavage, negative IMAC, ion exchange); not shown: His tag, N-terminal, cleaved; SUMO, N-terminal, cleaved
For the molecule B3, the binding result is on record as “binds” in assay [1] and “no binding” in assay [3]. Further, the values for the Kd in assay [2] and in assay [4] were 1.6 ± 0.2 nM and 1.61 ± 0.06 nM, respectively. Further, the dissociation rate constant (koff) in assay [2] amounted to 0.003 s⁻¹. Besides, in assay [2], the kon was 1.9e+06 M⁻¹ s⁻¹.

B4: pelB-BCD090-P1-His5 (VHH)
VHH: EVQLVQSGGGLVQPGGSLRLSCAASGRTSSKYAMGWFRQAPGKGTEFVATISWSDGSTYYADSVEGRFTISRDNAKNTVYLQMNSLKPEDTAVYYCAAAVDVLAGTFEYEYDYWGQGTLVTVSS
notes: as the VHH of m1 (BCD090-P1), with the uncleaved pelB leader and a histidine tag; also called BCD090-P1 purified from the periplasm; periplasmically expressed BCD090-P1; source: E. coli, periplasmic expression (pET22b), purified; not shown: pelB leader (uncleaved), N-terminal, kept; His5, C-terminal, kept
In assay [2], B4 registered a Kd of 5.1 ± 0.9 nM, a koff of 0.0044 s⁻¹ and a kon of 870000 M⁻¹ s⁻¹. The equilibrium dissociation constant (Kd) in assay [4] came to 6.5 ± 0.9 nM.

B5: BCD090-P1 conjugated with Cy5 or AF488 (VHH)
VHH: EVQLVQSGGGLVQPGGSLRLSCAASGRTSSKYAMGWFRQAPGKGTEFVATISWSDGSTYYADSVEGRFTISRDNAKNTVYLQMNSLKPEDTAVYYCAAAVDVLAGTFEYEYDYWGQGTLVTVSS
notes: as the VHH of m1 (BCD090-P1); also called labeled BCD090-P1; source: E. coli, purified, then labelled with sulfo-Cy5 or AF488 NHS ester
B5: the binding result in assay [5] is given as “binds”.

The values above are taken from publication PMC8467012, “Targeting ErbB3 Receptor in Cancer with Inhibitory Antibodies from Llama” (Biomedicines, 2021).
